# Measurements reported in patent publication US20260022144A1, “ANALGESIC POLYPEPTIDE” (Shanghai Puyou Biomedical Co., Ltd., priority 2022, published 2026).
# Positions count from the first letter of the chain named.
# B1: SEQ ID NO: 28: polypeptide of SEQ ID NO: 28 for treating or preventing peripheral neuropathic pain (protein)
# chain: SEKKQPVDLGLLEEDDEFEEFPAEDWAGLDEDEDAHVWEDNWDDDNVEDDFSNQLRATVLLMILVCETPYGCYVLHQKGRMCSAFLCC
# B2: SEQ ID NO: 49: artificial polypeptide of formula (III) X-Y (protein)
# chain: STKKQPVDLGLLETDSEFTEFPATSWAGLSESESAHVWTSNWDSSNVTSDFSNQLRATVLLMILVCETPYGCYVLHQKGRMCSAFLCC
# B3: SEQ ID NO: 57: artificial polypeptide of formula (I) X-Y; also listed for peripheral neuropathic pain (protein)
# chain: SEKKQPVDLGLLEEDDEFEEFPAEDWAGLDEDEDAHVWEDNWDDDNVTSDFSNQLRATVLLMI
# B4: SEQ ID NO: 75: artificial polypeptide of formula (I) X-Y (protein)
# chain: SEKKQPVDLGLLEEDDEFEEFPAEDWAGLDEDEDAHVWEDNWDDDNVEDDFSNQLRATVLLMILVAETPYGAYV
# B5: SEQ ID NO: 90: artificial polypeptide of formula (VI) X-Y (protein)
# chain: B2 chain with C66A, C72A, C82A, C87A, C88A
# B6: SEQ ID NO: 93: artificial polypeptide of formula (VI) or (I) X-Y (protein)
# chain: B1 chain with D34S, E48T, D49S, C66A, C72A, C82A, C87A, C88A
# What was measured:
# [1] = tested on: VZV-induced pain model in rats; assay: VZV-induced pain model in rats, mechanical allodynia (von Frey) test; format: in vivo, rat; conditions: 10 mg polypeptide/kg i.v., single administration, tested 0.5 h after administration
# Protocol: A summary of the method for inducing pain model in rats by means of subcutaneous VZV inoculation is provided hereinafter. Briefly, male Sprague Dawley (SD) rats were deeply anesthetized by intraperitoneal injection of a Zoletil R: 50 (30 mg/kg)/xylazine (6 mg/kg) anesthetic at an injection volume of 6 mL/kg, and then the virus inoculation was performed by subcutaneous injection at the footpad area. The infection dose was 22800 TCID50 per animal, and the infection volume was 150 μL for all rats.
# Administration was performed on alternate days. Briefly, the test articles were administered by subcutaneous injection at the footpad area on Day 1 and Day 3, respectively. As for Group 2, the administration of SEQ ID NO: 29 was initiated from the first concentration. Namely, the first concentration (10 μg/mL) was administered on Day 1, and the second concentration (20 μg/mL) was administered on Day 3. Pain was measured once after each administration.
# Mechanical allodynia tests (also called “von Frey tests”) for pain measurements were performed on the rats one hour after administration of the test articles on Day 1 and Day 3, respectively. In the behavioral test for rats, mechanical allodynia is expressed as the 50% paw withdrawal threshold (PWT), which is calculated according to the following formula:
# [formula] • wherein • Xf=final test fiber value used in the test • k=tabular value for the pattern of positive/negative responses (Chaplan et al. 1994, page 62) • δ=mean difference.
# Briefly, the rats were placed individually in plexiglass boxes with a grid at the bottom to ensure that the rats' feet could be tested. The rats were acclimated to the environment for 15 minutes prior to the test. After the acclimation was completed, pain (mechanical allodynia) was tested on the center of the sole of the left hind foot of the rats using test fibers. The test fibers included 8 test strengths: 3.61 (0.4 g), 3.84 (0.6 g), 4.08 (lg), 4.31 (2 g), 4.56 (4 g), 4.74 (6 g), 4.93 (8 g) and 5.18 (15 g). During the test, the test fibers were pressed vertically against the skin and forces were applied to bend the fibers for 6-8 seconds with a 5-second interval between each test. During the test, a pain response was recorded if the animals quickly withdrew their feet. The pain response was also recorded if the animal withdrew their feet as the test fibers left the animal's skin. The pain response was not recorded if the animal moved or ambulated, and the test should be repeated. The test was started with 4.31 (2 g). If the animal had pain response, the next test should be performed with a test fiber with a lower strength: if the animal has no pain response, the next test should be performed with a test fiber with a higher strength. The maximum strength of the tested fibers was 5.18 (15 g). The test results were recorded in a table, wherein the presence of pain response was recorded as “x”, and the absence of pain response was recorded as “0”.
# The rats were randomly divided into 2 groups, with 8 rats in the placebo group (Group 1, administered with vehicle (normal saline)) and 8 rats in the treatment group (Group 2, administered with 30 mg SEQ ID NO: 29/kg). Briefly, the test articles were administered to the rats on a single day by intravenous injection.
# Mechanical allodynia tests were performed on the rats 0.5 h after administration of the test articles according to the method as recited in Example 1, respectively.
# The rats were randomly divided into 3 groups, with 8 rats in the placebo group (Group 1, administered with vehicle (normal saline)) and 16 rats in the treatment groups (Groups 2 and 3, 8 rats/group, administered with various polypeptides). Briefly, vehicle (normal saline) was administered to the rats from Group 1 and various polypeptides were administered to the rats from Group 2 (SEQ ID: 29, SEQ ID: 57 and SEQ ID: 49; 10 mg polypeptide/kg) and 3 (SEQ ID: 75 and SEQ ID: 28: 10 mg polypeptide/kg) on a single day by intravenous injection.
# SNL pain model in rats = assay: SNL (spinal nerve ligation) pain model in rats, mechanical allodynia test; format: in vivo, rat; conditions: SD rats, i.v. single administration (SEQ ID NO: 29 30 and 60 mg/kg; SEQ ID NO: 90 and 93 60 mg/kg), 1 h after administration
# Protocol: A summary of the method for inducing pain model in rats by means of spinal nerve ligation is provided hereinafter. Briefly, male SD rats were anesthetized with Zoletil R 50+xylazine hydrochloride (20 mg/kg+8 mg/kg, intraperitoneal injection). The surgical areas on the waist regions of the animals were shaved, and the skin was disinfected with iodophor and 70% v/v ethanol for three times. The left spinal nerves L5 and L6 of the animals were isolated, tightly ligated with 6-0 silk suture, and the wounds were sutured.
# On the 11th day post operation, the animals were acclimated to the experimental environment, 15 minutes/day, for 3 consecutive days.
# Briefly, after SNL modeling, 24 animals were randomly divided into 3 groups (Groups 2, 3 and 4, N=8/group). Group 1 (a Sham group, for which the 10 animals received essentially the same operation procedure as other groups but their left spinal nerves L5 and L6 were neither isolated nor ligated) was used as the control group. The test articles were administrated to the animals according to the protocol shown in Table 5, and mechanical allodynia tests were respectively performed 1h after administration according to the method as recited in Example 1.
# Briefly, after SNL modeling, 30 animals were randomly divided into 3 groups (Group 1, N=6/group; Groups 2 and 3, N=12/group). Various polypeptides of the present disclosure were administered to the animals from Groups 2 and 3, and the animals were subjected to mechanical allodynia tests 1 h after administration according to the method as recited in Example 1.
Molecule,analgetic effect (50% PWT) [1],analgetic effect (50% PWT) (SNL pain model in rats)
B1,apparent analgetic effect,–
B2,apparent analgetic effect,–
B3,apparent analgetic effect,–
B4,apparent analgetic effect,–
B5,–,certain analgetic effect
B6,–,certain analgetic effect
